According to patent US10307466B2, “Composition comprising sophorolipid, physiologically active substance and oil or fat, and method for producing the same” (SARAYA CO., LTD., priority 2014, dated 2019):

Tested on: ICR mice
Assay: Tail-flick test with 48° C. heat stimulation (enhancement of the analgesic effect of morphine)
Assay type: in vivo
Parameters: key: −: no analgesic effect was observed; ±: an analgesic effect comparable to the treatment control was observed; +: an analgesic effect comparable to the positive control was observed; ++: a higher analgesic effect than the positive control was observed; +++: a higher analgesic effect than “++” was observed
Method: For the evaluation of an analgesic effect, the tail-flick test was performed with 48° C. heat stimulation. In the tail-flick test, the tail of mice is exposed to heat stimulation, and latency for the animal to flick the tail is measured. The response latency is known to be delayed after administration of an analgesic drug such as morphine. The test is used for the evaluation of an analgesic effect.
ICR mice at 5 weeks old were subjected to daily simultaneous administration of an intraperitoneal dose of morphine (3 mg/kg) (morphine hydrochloride (trade name), Daiichi Sankyo) and an oral dose of one of the compositions of Examples 1 to 3 (300 mg/kg bLF) and Comparative Example 1 (300 mg/kg) for 5 days. At 30 and 90 minutes after the administration on day 5, the tail-flick test was performed.
As a treatment control, ICR mice at 5 weeks old were subjected to daily simultaneous administration of an intraperitoneal dose of morphine (3 mg/kg) and an oral dose of physiological saline for 5 days. The tail-flick test was then performed in the same manner as above.
As a negative control, daily simultaneous administration of an intraperitoneal dose of physiological saline and an oral dose of physiological saline was performed for 5 days. […]

B1: bovine lactoferrin (protein, UniProt P24627 20-708, looked up)
Lactotransferrin: APRKNVRWCTISQPEWFKCRRWQWRMKKLGAPSITCVRRAFALECIRAIAEKKADAVTLDGGMVFEAGRDPYKLRPVAAEIYGTKESPQTHYYAVAVVKKGSNFQLDQLQGRKSCHTGLGRSAGWIIPMGILRPYLSWTESLEPLQGAVAKFFSASCVPCIDRQAYPNLCQLCKGEGENQCACSSREPYFGYSGAFKCLQDGAGDVAFVKETTVFENLPEKADRDQYELLCLNNSRAPVDAFKECHLAQVPSHAVVARSVDGKEDLIWKLLSKAQEKFGKNKSRSFQLFGSPPGQRDLLFKDSALGFLRIPSKVDSALYLGSRYLTTLKNLRETAEEVKARYTRVVWCAVGPEEQKKCQQWSQQSGQNVTCATASTTDDCIVLVLKGEADALNLDGGYIYTAGKCGLVPVLAENRKSSKHSSLDCVLRPTEGYLAVAVVKKANEGLTWNSLKDKKSCHTAVDRTAGWNIPMGLIVNQTGSCAFDEFFSQSCAPGADPKSRLCALCAGDDQGLDKCVPNSKEKYYGYTGAFRCLAEDVGDVAFVKNDTVWENTNGESTADWAKNLNREDFRLLCLDGTRKPVTEAQSCHLAVAPNHAVVSRSDRAAHVKQVLLHQQALFGKNGKNCPDKFCLFKSETKNLLFNDNTECLAKLGGRPTYEEYLGTEYVTAIANLKKCSTSPLLEACAFLTR
Evaluation at 30 min (analgesic effect, tail-flick test) (30 minutes after administration on day 5, daily i.p. morphine 3 mg/kg + oral composition (300 mg/kg bLF) for 5 days): +
Evaluation at 90 min (analgesic effect, tail-flick test) (90 minutes after administration on day 5, daily i.p. morphine 3 mg/kg + oral composition (300 mg/kg bLF) for 5 days): +
